Data as given in PMC10558600 (Heliyon, 2023).
Like-named read-outs stand apart in the source and are kept apart here.

How the values were obtained:
Test in all cases: ELISA
[1] = molecular target: T1, Cry4Ba-domain II fragment (Bacillus thuringiensis subsp. …, UniProt P05519 286-470)
T1 sequence: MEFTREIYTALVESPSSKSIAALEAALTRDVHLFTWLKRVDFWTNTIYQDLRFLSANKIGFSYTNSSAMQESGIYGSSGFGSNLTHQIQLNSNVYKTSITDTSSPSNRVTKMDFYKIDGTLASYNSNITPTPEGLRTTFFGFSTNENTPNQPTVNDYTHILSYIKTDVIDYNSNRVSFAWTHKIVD

[2] = molecular target: T2, Cry4Ba-domain III fragment (Bacillus thuringiensis subsp. …)
T2 sequence (P05519 whole entry, looked up): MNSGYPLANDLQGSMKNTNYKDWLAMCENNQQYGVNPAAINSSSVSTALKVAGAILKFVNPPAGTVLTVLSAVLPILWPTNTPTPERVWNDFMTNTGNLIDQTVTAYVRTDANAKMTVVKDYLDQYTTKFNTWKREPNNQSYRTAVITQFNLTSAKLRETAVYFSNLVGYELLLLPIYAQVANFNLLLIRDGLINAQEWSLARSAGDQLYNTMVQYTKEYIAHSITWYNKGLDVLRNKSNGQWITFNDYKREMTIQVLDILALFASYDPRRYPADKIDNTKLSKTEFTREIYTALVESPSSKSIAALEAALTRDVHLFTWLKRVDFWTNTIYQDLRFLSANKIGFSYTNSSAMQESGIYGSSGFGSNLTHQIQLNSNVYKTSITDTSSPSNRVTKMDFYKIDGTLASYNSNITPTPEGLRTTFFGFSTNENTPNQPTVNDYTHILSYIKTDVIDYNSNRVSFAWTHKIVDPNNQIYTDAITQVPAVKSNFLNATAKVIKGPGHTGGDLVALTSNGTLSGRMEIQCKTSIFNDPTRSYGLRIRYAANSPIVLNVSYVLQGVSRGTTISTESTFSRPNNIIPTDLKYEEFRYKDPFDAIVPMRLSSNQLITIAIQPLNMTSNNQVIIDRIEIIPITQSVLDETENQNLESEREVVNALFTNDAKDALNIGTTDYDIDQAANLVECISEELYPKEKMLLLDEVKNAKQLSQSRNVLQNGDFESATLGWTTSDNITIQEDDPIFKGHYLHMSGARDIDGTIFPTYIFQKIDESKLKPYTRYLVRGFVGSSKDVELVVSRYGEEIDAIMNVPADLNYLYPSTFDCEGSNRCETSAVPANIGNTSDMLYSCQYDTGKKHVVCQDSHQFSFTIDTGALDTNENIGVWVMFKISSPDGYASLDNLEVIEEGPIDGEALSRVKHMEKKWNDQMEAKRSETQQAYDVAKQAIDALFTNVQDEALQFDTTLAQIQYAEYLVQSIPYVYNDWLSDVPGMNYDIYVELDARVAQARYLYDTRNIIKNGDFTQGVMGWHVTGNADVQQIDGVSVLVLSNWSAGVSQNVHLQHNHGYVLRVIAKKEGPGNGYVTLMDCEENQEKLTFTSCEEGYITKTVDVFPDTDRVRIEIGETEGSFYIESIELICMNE

[3] = molecular target: T1, Cry4Ba-domain II fragment; remark: listed apart in the source

B1: Aedes aegypti membrane-bound alkaline phosphatase (Aa-mALP) (receptor)
chain: MTLYRSRAANMSRLRFDVSVWVMVTMCVLSARNCWAQGEYDPNYWNQQAHDLLFEKKDYTMQKVNIAKNIIVFVGSGMSQATVTAARTHKGGENATFPFEQLKWSGNARTYCVDSRVPDSACASTAFLTGVKSNLGTVAVHPNVKRGDCVATSDKVKQLESIAKWALAEGRVVGFATTSRVTAGSNAALYAHSADKDWENDASVTAAGCNATQVNDIAYQLINGDVGKHFKVIFGGGRKNFIPNTETDESGARGLRTDGKNLIQEWKESKTGNAVYITTNSELGALNTTNIDYLMGLFSYDRLPYAADMGEEPNKETPPLVRMVHYSLEMLQKKEHSGGFLLFVEDGNIQEAHKENKPIKAFEQVKHYANAFNMAHMMVSEANTLLISMNDVGSTLSIPGYPARDTDILTEAGTSDKDSKPYLSLAYATGPSYDSYYQPNEGRVNPLAVLQGTPTQKEQTCSAAVPMSEGVNGGEDASVYATGPWAFMFSGGYEQNFIAHAISFASCITDVCGGASSVVVSSAALLLALMVRVFA
Kd [1]: 118 nM
Kd [2]: 118 ± 8.1 nM
Kd [3]: 116 nM
